Assay results as given in article PMC9400459 (Science (New York, N.y.), 2022).

Biological target: SARS-CoV-2 receptor binding domain (SARS-CoV-2, UniProt P0DTC2)
Assay: cell-based or functional assay

B1: S2K146 human monoclonal antibody (antibody, V domains shown)
VH: QVQLVESGGVVVQPGGSLRLSCAASGFTFHDHTMHWVRQAPGKGLEWVSLITWNGGTIHYSDSVKGRFTISRDNSKNSLYLQMNSLRTEDTALYYCAKDLGRGGWYLPSDAWGQGTLVTVSS
VL: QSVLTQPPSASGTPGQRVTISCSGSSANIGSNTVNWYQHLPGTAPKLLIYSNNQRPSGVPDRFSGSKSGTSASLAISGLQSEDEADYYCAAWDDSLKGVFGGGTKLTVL
  IC50 of neutralisation of authentic SARS-CoV-2 (isolate USA-WA1/2020, lineage A): 10 ng/mL
